The assay addresses V5-HAX-1 (HCLS1-associated protein X-1) (human) (UniProt O00165). In words: co-IP.
UniProt O00165, sequence (O00165 whole entry): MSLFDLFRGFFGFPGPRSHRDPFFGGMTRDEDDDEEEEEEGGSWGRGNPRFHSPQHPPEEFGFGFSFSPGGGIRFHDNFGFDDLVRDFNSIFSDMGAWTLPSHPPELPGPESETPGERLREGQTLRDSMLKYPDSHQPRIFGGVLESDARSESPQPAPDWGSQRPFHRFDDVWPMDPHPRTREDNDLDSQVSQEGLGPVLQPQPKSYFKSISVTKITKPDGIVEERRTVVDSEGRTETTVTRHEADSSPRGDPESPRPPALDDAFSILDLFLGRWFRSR

On to “VN/1203 PB1-F2 coexpressed as competitor (Figure 8c) (natural protein)”, for which the percent decrease of HAX-1 bound to PA in the presence of PB1-F2 came out at 80%.

The values are drawn from article PMC5952157.
